Assay results published in US20220275095A1 (SURROZEN OPERATING, published 2022).
Numbering of substitutions follows the chain as printed.

T1: human Fzd1 hinge region (human)
T1 construct: also called hFzd1L
T1 peptide: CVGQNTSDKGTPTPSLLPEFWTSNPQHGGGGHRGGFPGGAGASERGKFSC

T2: mouse Fzd1 hinge region (mouse, UniProt O70421 222-271, limits assumed)
T2 construct: domain: hinge region; also called mFzd1L
T2 peptide (looked up): T1 peptide with H32Y, F36Y, A42T, S43V

T3: mouse Fzd6 hinge region (mouse, UniProt Q61089 129-161, limits assumed)
T3 construct: domain: hinge region; also called mFzd6L
T3 peptide (looked up): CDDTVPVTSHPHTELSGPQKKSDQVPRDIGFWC

T4: mouse Fzd3 hinge region (mouse, UniProt Q61086 133-165, limits assumed)
T4 construct: domain: hinge region; also called mFzd3L
T4 peptide (looked up): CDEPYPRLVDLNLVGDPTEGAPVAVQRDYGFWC

T5: human Fzd6 hinge region (human)
T5 construct: also called hFzd6L
T5 peptide: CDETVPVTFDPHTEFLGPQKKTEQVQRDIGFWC

T6: mouse Fzd7 hinge region (mouse, UniProt Q61090 160-208, limits assumed)
T6 construct: domain: hinge region; also called mFzd7L
T6 peptide (looked up): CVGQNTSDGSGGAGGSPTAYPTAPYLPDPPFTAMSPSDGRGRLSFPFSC

T7: mouse Fzd10 hinge region (mouse, UniProt Q8BKG4 148-193, limits assumed)
T7 construct: domain: hinge region; also called mFzd10L
T7 peptide (looked up): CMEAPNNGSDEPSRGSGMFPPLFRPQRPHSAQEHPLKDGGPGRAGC

T8: human Fzd10 hinge region (human)
T8 construct: also called hFzd10L
T8 peptide: T7 peptide (looked up) with S13T, M18L, A44G

T9: mouse Fzd4 hinge region (mouse, UniProt Q61088 158-181, limits assumed)
T9 construct: domain: hinge region; also called mFzd4L
T9 peptide (looked up): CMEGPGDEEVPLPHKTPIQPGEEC

T10: human Fzd9 hinge region (human)
T10 construct: also called hFzd9L; hFzd9
T10 peptide: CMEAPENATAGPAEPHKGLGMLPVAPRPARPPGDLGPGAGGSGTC

T11: mouse Fzd5 hinge region (mouse, UniProt Q9EQD0 147-182, limits assumed)
T11 construct: domain: hinge region; also called mFzd5L
T11 peptide (looked up): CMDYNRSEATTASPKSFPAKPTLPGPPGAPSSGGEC

T12: mouse Fzd9 hinge region (mouse, UniProt Q9R216 153-197, limits assumed)
T12 construct: domain: hinge region; also called mFzd9
T12 peptide (looked up): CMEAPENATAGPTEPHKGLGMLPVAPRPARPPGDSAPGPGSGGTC

T13: mouse Fzd8 hinge region (mouse, UniProt Q61091 148-225, limits assumed)
T13 construct: domain: hinge region; also called mFzd8L; mFzd8
T13 sequence (peptide, looked up): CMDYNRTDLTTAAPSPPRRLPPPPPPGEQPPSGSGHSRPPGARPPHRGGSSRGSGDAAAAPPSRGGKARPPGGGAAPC

T14: human Fzd3 hinge region (human)
T14 construct: also called hFzd3L
T14 peptide: T4 peptide (looked up) with V14A, D16E

T15: human Fzd5 hinge region (human)
T15 construct: also called hFzd5L
T15 peptide: T11 peptide (looked up) with S13P, K15R, S16P, S31A

T16: human Fzd2 hinge region (human)
T16 construct: also called hFzd2L
T16 peptide: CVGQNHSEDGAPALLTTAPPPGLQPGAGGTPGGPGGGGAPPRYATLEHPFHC

T17: human Fzd4 hinge region (human)
T17 construct: also called hFzd4L
T17 peptide: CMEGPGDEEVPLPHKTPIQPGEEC

B1: 031S-B02 (antibody, V domains shown)
VH: EVQLLESGGGLVQPGGSLRLSCAASGFTFSSYWMSWVRQAPGKGLEWVSAIGGSGANAYYADSVKGRFTISRDNSKNTLYLQMNSLRAEDTAVYYCVRDTNWAFDLWGQGTMVTVSS
VL: EIVMTQSPATLSVSPGERATLSCRASQSVSGSYLAWYQQKPGQAPRLLIYGASTRATGIPARFSGSGSGTEFTLTISSLQSEDFAVYYCQQYGSSPLTFGQGTKVEIK
notes: also called 31SB2
B2: 033S-D02 (antibody, V domains shown)
VH: QVQLVQSGAEVKKPGSSVKVSCKASGITFTSSAVHWVRQAPGQGLEWLGIINPSGGSTSYAQKFQGRVTITADESTSTAYMELSSLRSEDTAVYYCARRMVYAPYKDVWGKGTMVTVSS
VL: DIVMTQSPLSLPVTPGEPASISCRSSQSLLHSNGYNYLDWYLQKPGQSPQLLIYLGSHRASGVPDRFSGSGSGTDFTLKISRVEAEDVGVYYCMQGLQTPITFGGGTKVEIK
notes: human IgG1, human kappa or lambda light chain; also called 33SD2
B3: 033S-E02 (antibody, V domains shown)
VH: QVQLVQSGAEVKKPGSSVKVSCKASGGTFTSYAISWVRQAPGQGLEWMGMINPSGGRTTYAQKFQGRVTITADESTSTAYMKLSSLRSEDTAVYYCAIRTIFGVVIDYWGQGTLVTVSS
VL: not shown
notes: human IgG1, human kappa or lambda light chain; also called 33SE2
B4: 033S-B03 (antibody, V domains shown)
VH: QVQLVQSGAEVKKPGSSVKVSCKASGYTFTGQYMHWVRQAPGQGLEWMGGIIPIFGTAHYPQKFQGRVTITADESTSTAYMELSSLRSEDTAVYYCARRSVAAGTPFTDYWGQGTLVTVSS
VL: not shown
notes: human IgG1, human kappa or lambda light chain; also called 33SB3
B5: 033S-B03 Fab (Fab, V domains shown)
VH: B4 VH
VL: not shown
notes: also called 33SB3
B6: 033S-D02 Fab (Fab, V domains shown)
VH: B2 VH
VL: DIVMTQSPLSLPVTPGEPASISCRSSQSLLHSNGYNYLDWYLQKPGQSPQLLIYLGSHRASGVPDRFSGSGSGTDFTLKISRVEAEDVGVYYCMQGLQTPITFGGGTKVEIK
notes: also called 33SD2
B7: 033S-E02 Fab (Fab, V domains shown)
VH: B3 VH
VL: not shown
notes: also called 33SE2

Assays:
[1] = molecular target: T18, hFzd2L (human, UniProt Q14332 150-201); test: phage ELISA, antigen on plate
T18 construct: ELISA antigen; also called human Fzd2 hinge region; Frizzled 2
Method: Detection of bound phage was determined calorimetrically by turnover of TMB substrate (Thermo Fisher Scientific, Waltham, Mass.) at […] by anti-M13-HRP antibody (GE Healthcare, Pittsburgh, Pa.). Clones were identified as binding to a Fzd receptor when the fold OD 450 nm over background was greater than a threshold level.

[2] = molecular target: T1, human Fzd1 hinge region; test: SPR; ** = 1 uM > KD > 100 nM
Method: (§1) Certain VL and VH clones from Table 1 were PCR amplified from the phage clone and sub-cloned into pcDNA3.1 based mammalian expression vectors (Invitrogen/ThermoFisher) of human kappa or lambda light chain and human IgG1 heavy chain, respectively. Candidate IgGs were purified using Protein A affinity resin. The candidate library was captured on an anti-FC lawn. The capture lawn was prepared by direct amine coupling goat anti-human IgG Fc (Southern Biotech #2048-01) at 8000 RU on a HC200M Carterra sensor chip (Carterra 4297). Capture levels were at least 600 RU for each candidate IgG. Binding to all target peptides was measured at 25° by injecting a concentration series of each peptide in 1×PBST+0.5 mg/mL BSA (TEKnova P1192, VWR V0332). All peptides were injected at 4.12 nM, 12.3 nM, 37 nM, 111 nM, 333 nM, and 1000 nM. Two blank injections were run between each peptide concentration series. Each injection started with a one minute baseline determination, followed by a five minute association phase where peptides were injected, and finished with a 10 minute dissociation phase. Binding data was analyzed using NextGenKIT (Carterra). Blank injections and reference locations were subtracted from all runs prior to fitting a 1:1 binding model to the data. […] Interactions with an Rₘₐₓ less than 15 RU or weaker than 5 μM were considered non-binders.

[3] = molecular target: T2, mouse Fzd1 hinge region; test: SPR; ** = 1 uM > KD > 100 nM
Method: as §1

[4] = molecular target: T3, mouse Fzd6 hinge region; test: SPR
Method: as §1

[5] = molecular target: T4, mouse Fzd3 hinge region; test: SPR
Method: as §1

[6] = molecular target: T5, human Fzd6 hinge region; test: SPR
Method: as §1

[7] = molecular target: T6, mouse Fzd7 hinge region; test: SPR
Method: as §1

[8] = molecular target: T7, mouse Fzd10 hinge region; test: SPR
Method: as §1

[9] = molecular target: T8, human Fzd10 hinge region; test: SPR
Method: as §1

[10] = molecular target: T9, mouse Fzd4 hinge region; test: SPR
Method: as §1

[11] = molecular target: T10, human Fzd9 hinge region; test: SPR
Method: as §1

[12] = molecular target: T11, mouse Fzd5 hinge region; test: SPR
Method: as §1

[13] = molecular target: T12, mouse Fzd9 hinge region; test: SPR
Method: as §1

[14] = molecular target: T13, mouse Fzd8 hinge region; test: SPR
Method: as §1

[15] = molecular target: T14, human Fzd3 hinge region; test: SPR
Method: as §1

[16] = molecular target: T15, human Fzd5 hinge region; test: SPR
Method: as §1

[17] = molecular target: T16, human Fzd2 hinge region; test: SPR
Method: as §1

[18] = molecular target: T17, human Fzd4 hinge region; test: SPR
Method: as §1

[19] = molecular target: T19, mouse Fzd2 hinge region (mouse, UniProt Q9JIP6 155-206, limits assumed); test: SPR
T19 construct: domain: hinge region; also called mFzd2L
Method: as §1

[20] = molecular target: T1, human Fzd1 hinge region; test: SPR; *** = 100 nM > KD > 10 nM
Method: as §1

[21] = molecular target: T2, mouse Fzd1 hinge region; test: SPR; *** = 100 nM > KD > 10 nM
Method: as §1

[22] = molecular target: T1, human Fzd1 hinge region; test: SPR; **** = 10 nM > KD
Method: as §1

[23] = molecular target: T2, mouse Fzd1 hinge region; test: SPR; **** = 10 nM > KD
Method: as §1

[24] = molecular target: Fzd1 CRD (UniProt Q9UP38 105-232); test: BLI (Octet Red 96), biotinylated Fzd1 CRD on streptavidin biosensor
Method: Binding kinetics of monospecific Fzd binders to either (CRD) or the extracellular hinge region (hinge) was determined by bio-layer interferometry (BLI) using Octet Red 96 (PALL ForteBio, Fremont, Calif.) instruments at 30° C., 1000 rpm with streptavidin (SA) biosensors. N-terminal biotinylated Fzd1 or Fzd2 CRD and Fzd1 or Fzd 2 hinge proteins were captured on the SA biosensor. Following capture of biotinylated-Fzd1 or Fzd2, the SA biosensor with captured […] was dipped into wells containing the relevant antibodies at 7 different concentrations in running buffer plus a well with only running buffer as a reference channel. KD was determined by global fitting. As shown in FIGS. 4A-4H these antibody fusion proteins only bound to either Fzd1 or Fzd2 protein with the hinge region, and not to the CRD domains alone.

| Binder | binding result [4] | binding result [5] | binding result [6] | binding result [7] | binding result [8] | binding result [9] | binding result [10] | binding result [11] | binding result [12] | binding result [13] | binding result [14] | binding result [15] | binding result [16] | binding result [17] | binding result [18] | binding result [19] | binding result [24] | also measured |
| --- | --- | --- | --- | --- | --- | --- | --- | --- | --- | --- | --- | --- | --- | --- | --- | --- | --- | --- |
| B1 |  |  |  |  |  |  |  |  |  |  |  |  |  |  |  |  |  | binding result [1]: binds |
| B2 | no binding (tested: 5 uM) | no binding (tested: 5 uM) | no binding (tested: 5 uM) | no binding (tested: 5 uM) | no binding (tested: 5 uM) | no binding (tested: 5 uM) | no binding (tested: 5 uM) | no binding (tested: 5 uM) | no binding (tested: 5 uM) | no binding (tested: 5 uM) | no binding (tested: 5 uM) | no binding (tested: 5 uM) | no binding (tested: 5 uM) | no binding (tested: 5 uM) | no binding (tested: 5 uM) | no binding (tested: 5 uM) |  | KD [2]: 100 to 1000 nM; KD [3]: 100 to 1000 nM |
| B3 | no binding (tested: 5 uM) | no binding (tested: 5 uM) | no binding (tested: 5 uM) | no binding (tested: 5 uM) | no binding (tested: 5 uM) | no binding (tested: 5 uM) | no binding (tested: 5 uM) | no binding (tested: 5 uM) | no binding (tested: 5 uM) | no binding (tested: 5 uM) | no binding (tested: 5 uM) | no binding (tested: 5 uM) | no binding (tested: 5 uM) | no binding (tested: 5 uM) | no binding (tested: 5 uM) | no binding (tested: 5 uM) |  | KD [20]: 10 to 100 nM; KD [21]: 10 to 100 nM |
| B4 | no binding (tested: 5 uM) | no binding (tested: 5 uM) | no binding (tested: 5 uM) | no binding (tested: 5 uM) | no binding (tested: 5 uM) | no binding (tested: 5 uM) | no binding (tested: 5 uM) | no binding (tested: 5 uM) | no binding (tested: 5 uM) | no binding (tested: 5 uM) | no binding (tested: 5 uM) | no binding (tested: 5 uM) | no binding (tested: 5 uM) | no binding (tested: 5 uM) | no binding (tested: 5 uM) | no binding (tested: 5 uM) |  | KD [22]: < 10 nM; KD [23]: < 10 nM |
| B5 |  |  |  |  |  |  |  |  |  |  |  |  |  |  |  |  | no binding |  |
| B6 |  |  |  |  |  |  |  |  |  |  |  |  |  |  |  |  | no binding |  |
| B7 |  |  |  |  |  |  |  |  |  |  |  |  |  |  |  |  | no binding |  |
